Measured values taken from patent publication US20150283219A1 (INVECTYS, published 2015).
Values belong to the binder of their own block, whether it stands above or below them.

Key:
Assay in all cases: competitive ELISA, mean of three experiments
HLA-DR15 = HLA-DR15 (human)
HLA-DRB3 = HLA-DRB3 (human)
HLA-DRB5 = HLA-DRB5 (human)
HLA-DR1 = HLA-DR1 (human)
HLA-DR4 = HLA-DR4 (human)
HLA-DR7 = HLA-DR7 (human)
HLA-DRB4 = HLA-DRB4 (human)

relative affinity (RA, IC50 of UCP / IC50 of reference peptide) (HLA-DR15): 3 ratio
relative affinity (RA, IC50 of UCP / IC50 of reference peptide) (HLA-DRB3): 154 ratio
relative affinity (RA, IC50 of UCP / IC50 of reference peptide) (HLA-DRB5): 0.5 ratio
relative affinity (RA, IC50 of UCP / IC50 of reference peptide) (HLA-DR1): 0.3 ratio
relative affinity (RA, IC50 of UCP / IC50 of reference peptide) (HLA-DR4): 34 ratio
relative affinity (RA, IC50 of UCP / IC50 of reference peptide) (HLA-DR7): 8 ratio
B1: UCP4 (TERT1041-1055) (peptide)
peptide: SLCYSILKAKNAGMS
notes: Synthetic 15-mer (>80% purity, Activotec) derived from human TERT; also called UCP1041; p1041

relative affinity (RA, IC50 of UCP / IC50 of reference peptide) (HLA-DR15): 8 ratio
relative affinity (RA, IC50 of UCP / IC50 of reference peptide) (HLA-DRB3): 154 ratio
relative affinity (RA, IC50 of UCP / IC50 of reference peptide) (HLA-DRB4): 229 ratio
relative affinity (RA, IC50 of UCP / IC50 of reference peptide) (HLA-DRB5): 1 ratio
relative affinity (RA, IC50 of UCP / IC50 of reference peptide) (HLA-DR1): 0.2 ratio
relative affinity (RA, IC50 of UCP / IC50 of reference peptide) (HLA-DR4): 112 ratio
relative affinity (RA, IC50 of UCP / IC50 of reference peptide) (HLA-DR7): 1 ratio
B2: UCP2 (TERT578-592) (peptide)
peptide: KSVWSKLQSIGIRQH
notes: Synthetic 15-mer (>80% purity, Activotec) derived from human TERT; also called UCP578; p578

relative affinity (RA, IC50 of UCP / IC50 of reference peptide) (HLA-DR15): 4 ratio
relative affinity (RA, IC50 of UCP / IC50 of reference peptide) (HLA-DRB3): 30 ratio
relative affinity (RA, IC50 of UCP / IC50 of reference peptide) (HLA-DRB4): 4 ratio
relative affinity (RA, IC50 of UCP / IC50 of reference peptide) (HLA-DRB5): 1 ratio
relative affinity (RA, IC50 of UCP / IC50 of reference peptide) (HLA-DR1): 3 ratio
relative affinity (RA, IC50 of UCP / IC50 of reference peptide) (HLA-DR4): 50 ratio
relative affinity (RA, IC50 of UCP / IC50 of reference peptide) (HLA-DR7): 3 ratio
B3: UCP1 (TERT44-58) (peptide)
peptide: PAAFRALVAQCLVCV
notes: Synthetic 15-mer (>80% purity, Activotec) derived from human TERT; also called UCP44; p44
